Measured values taken from US8058507B2, “HOPM1 mediated disease resistance to Pseudomonas syringae in Arabidopsis” (priority 2007, dated 2011).

What was measured:
AtMIN7 [1] = test: Detection of polyubiquitinated AtMIN7 in planta; type: cell-based, Arabidopsis thaliana; conditions: MG132-treated N. benthamiana leaves
From the text: Left: AtMIN7:HA and 6×His:HopM1-300, 6×His:HopM301-712 or 6×His:HopM1-712 were transiently co-expressed in MG132-treated N. benthamiana leaves. Ubiquitinated proteins were detected by western blot (WB) with a polyclonal ubiquitin (Ub) antibody (Sigma Co.). Right: AtMIN7:HA and 6×His:HopM1-712 were transiently co-expressed in 1% DMSO (−)- or MG132-treated N. benthamiana leaves. AtMIN7 was immunoprecipitated (IP) using a polyclonal AtMIN7 antibody. Ubiquitinated AtMIN7 protein was detected by western blot (WB) with a polyclonal ubiquitin (Ub) antibody (Sigma Co.). See Materials and Methods for transient expression and immunoprecipitation of AtMIN7 and HopM1 in N. benthamiana leaves.

[2] = test system: Arabidopsis Y2H cDNA library; test: Yeast two-hybrid (Y2H) screening with HopM1 baits; type: binding; conditions: protein used as bait
From the text: A LexA-based yeast two-hybrid system was used for screening an Arabidopsis Y2H cDNA library using full-length HopM1 and the dominant-negative domain of HopM1 (HopM11-300) as bait, in separate screenings. This system was based upon a pGilda Lex A expression vector (CLONTECHniques, OCTOBER 1999 p. 26-27, Clontech Laboratories Inc.; herein incorporated by reference in its entirety) for expressing HopM1 proteins in combination with a lacZ reporter gene on a separate plasmid that autonomously replicated in yeast (CLONTECHniques, OCTOBER 1999 p. 26-27, Clontech Laboratories Inc.; herein incorporated by reference in its entirety), see below for addition information (see, MATCHMAKER LexA Two-Hybrid System Catalog #K1609-1 and MATCHMAKER LexA Libraries User Manual (PT3040-1) Version It PR67300 and (Yeast Protocols Handbook, Protocol # PT3024-1 Version # PR13103, published 14 Mar. 2001; herein incorporated by reference in its entirety).
hopM1 DNA fragments were amplified by PCR using the primers listed below and standard PCR procedures then fragments were isolated and cloned into a bait vector pGilda Lex A (resistance to ampicillin (100 μg/ml) to E. coli hosts; Protocol # PT3147-5; Version # PR81829; Clontech Laboratories, Inc.; herein incorporated by reference in its entirety). […]

Pst DC3000 ΔCEL mutant = test: Bacterial multiplication and disease symptoms in HopM1 transgenic Arabidopsis plants; type: in vivo, Pseudomonas syringae; conditions: protein expressed in transgenic Arabidopsis (Col-0 gl1), DEX-induced
Method: Following inoculation, infected plants were monitored daily over a 3- to 4-day period for symptom development and bacterial multiplication. For experiments described in FIGS. 1 and 5, plants were sprayed with 30 μM dexamethasone (DEX) 24 h before bacterial inoculation (1×10^6 cfu/ml).
Leaves were harvested and surface sterilized as follows: 1) whole leaves were removed from a host plant and gently mixed in a 70% ethanol solution for 1 minute. Leaves were blotted briefly on paper towels then rinsed in sterile distilled water for 1 minute, then blotted dry on paper towels. Leaf disks were excised from leaves with a 0.5 cm^2 or smaller cork borer, depending on the size of the sample leaves; 2) leaf disks from the leaves of 2 or more independent replicate plants were pooled for a single tissue sample and placed in a 1.5-mL microfuge tube with 100 μL sterile distilled water, the amount of leaf tissue per tube was recorded as leaf surface area. Three or more samples were harvested for each time point. […] The number of serial dilutions necessary to get countable colonies were determined for each sample, however dilutions to 10^−7 were usually sufficient for any bacterial strain; 7) The samples were plated on the appropriate medium (e.g., Low salt Luria Bertani) supplemented with the necessary antibiotics to select for the specific inoculated bacterial strain. […]

AtMIN7 [3] = test: Immunoblot of endogenous AtMIN7 in Arabidopsis leaves infiltrated with ΔCEL mutant bacteria (pORF43); type: in vivo; conditions: HopM1 delivered by 1×10^8 CFU/ml ΔCEL mutant bacteria (pORF43)
Method: In brief: leaf disc fractions were homogenized in 1×SDS-polyacrylamide gel electrophoresis (PAGE) sample buffer, boiled for 5 min, and centrifuged for 2 minutes. Proteins in the supernatant were separated on SDS-PAGE gels and transferred to Immobilon-P membrane for immunoblotting procedures (Millipore Corp., Bedford, Mass.).
AtMIN7 is a low-abundance protein in Arabidopsis plants, however it is detected with a rabbit polyclonal antibody, described herein. […] AtMIN7 was absent on the immunoblots of leaves infiltrated with ΔCEL mutant bacteria (pORF43) but not the leaves infiltrated with water or ΔCEL mutant bacteria (FIG. 2C).

B1: full-length HopM1: Pst DC3000 type III effector, 712-aa virulence protein (SEQ ID NO:34) (protein)
chain: MISSRIGGAGGVELSRVNQQHDTVPAQTAHPNAVTAGMNPPLTPDQSGSHATESSSAGAARLNVAARHTQLLQAFKAEHGTAPVSGAPMISSRAALLIGSLLQAEPLPFEVMAEKLSPERYQLKQFQGSDLQQRLEKFAQPGQIPDKAEVGQLIKGFAQSVADQLEHFQLMHDASPATVGQHAKADKATLAVSQTALGEYAGRASKAIGEGLSNSIASLDEHISALDLTLQDAEQGNKESLHADRQALVDAKTTLVGLHADFVKSPEAKRLASVAAHTQLDNVVSDLVTARNTVGGWKGAGPIVAAAVPQFLSSMTHLGYVRLSTSDKLRDTIPETSSDANMLKASIIGMVAGIAHETVNSVVKPMFQAALQKTGLNERLNMVPMKAVDTNTVIPDPFELKSEHGELVKKTPEEVAQDKAFVKSERALLNQKKVQGSSTHPVGELMAYSAFGGSQAVRQMLNDVHQINGQTLSARALASGFGGAVSASSQTLLQLKSNYVDPQGRKIPVFTPDRAESDLKKDLLKGMDLREPSVRTTFYSKALSGIQSSALTSALPPVTAQAEGASGTLSAGAILRNMALAATGSVSYLSTLYTNQSVTAEAKALKAAGMGGATPMLDRTETALNNIRHPNRESLPHTFQKSTLSGIPRVAENAYHMGRGALQLPTQMAVDTVRVVDEGVLNAVASAREALKQPTKDDDALRALEEGLLDPR
modifications: 6xHis tag; Pseudomonas syringae pv. tomato str. DC3000
Q: Which “polyubiquitination of AtMIN7” value (AtMIN7 [1]) does the source give for B1 here?
A: The value was “enhanced”.

Q: What about the “interactors recovered in Y2H screen” value [2] of the same molecule?
A: The value was “failed to recover target interactor host proteins”.

Q: What about the “complementation of the virulence defect (multiplication, disease symptoms)” value (Pst DC3000 ΔCEL mutant) of the same molecule?
A: Its value is “almost fully complemented”.

Q: What about the “endogenous AtMIN7 protein on immunoblot” value (AtMIN7 [3]) of the same molecule?
A: Its value is “absent”.
